The record followed here is US20260209311A1, “MODIFIED G PROTEIN COUPLED RECEPTOR AND USE THEREOF” (ALPHELIX BIOTECH CO., LTD., priority 2023, published 2026).

Assay [1] concerns the target MC4R WT. Briefly: SPR; 1:1 kinetic, 25 C. (In general: Surface plasmon resonance follows binding to a sensor surface in real time, without labels.)
For assay [2], the target named is MC4R WT. Briefly: SPR; steady state affinity, 25 C.

As usually defined, the Kd is the constant that tells how readily two partners part at equilibrium. High values mean a looser complex, low ones a tighter complex. With SHU 9119, the dissociation constant (Kd) came to 0.00837 nM with MC4R WT [1] and 5.74 nM with MC4R WT [2].
On the same counts, the results for Setmelanotide are 35.3 nM and 9.72 nM.
In the case of a-MSH, the dissociation constant (Kd) with MC4R WT [1] is 155 nM; with MC4R WT [2] it was 313 nM.
